The results in this text go back to patent US20170002083A1 (KYMAB, published 2017).

Test [1] has as its target T1, Recombinant Human OX40L (Leader sequence, Isoleucine Zipper and FLAG Sequence Included) (human).
T1 construct: also called hOX40L; recombinant hOX40L
The experiment in a line: HTRF ligand/receptor neutralisation: biotinylated hOX40L with OX40RFc-AF647, antibody titrated; readout is % of receptor binding. The protocol:
(§1) In order to determine whether recombinantly expressed fully human purified IgG inhibit human OX40L binding to OX40RFc the following method was carried out. Fully human purified IgG or other inhibitor were tested in order to establish the clone potency as measured by IC₅₀ values in the assay. Antibodies recombinantly expressed and purified were titrated by diluting in HTRF assay buffer and 5 μL of this titration transferred to a white 384 well low volume non-binding surface polystyrene plate (Greiner). Biotinylated OX40L was diluted in HTRF assay buffer to a working concentration of 2.4 nM and 5 μL added. OX40RFc directly labelled with AF647 was then diluted to working concentration of 10 nM and 5 μL added. Non-specific binding was defined by replacing OX40RFc-AF647 with assay buffer or HMM. […] Plates were covered, protected from light and incubated at room temperature for 3 hrs prior to reading time resolved fluorescence at 620 nm and 665 nm emission wavelengths using an EnVision plate reader (Perkin Elmer). Data were analysed by calculating delta F as described in Equation 4 and percentage of receptor for each sample according to Equation 5 or in some cases Equation 6. IC₅₀ values were determined using GraphPad Prism software by curve fitting using a four-parameter logistic equation (Equation 7) (FIG. 1).

In test [2] the target is T2, Recombinant Rhesus OX40L (Leader Sequence, FLAG and Isoleucine zipper included) (Rhesus (Macaca mulatta)).
T2 construct: also called RhsOX40L; Rhesus monkey OX40L
T2 sequence (chain, as listed by the source limits assumed): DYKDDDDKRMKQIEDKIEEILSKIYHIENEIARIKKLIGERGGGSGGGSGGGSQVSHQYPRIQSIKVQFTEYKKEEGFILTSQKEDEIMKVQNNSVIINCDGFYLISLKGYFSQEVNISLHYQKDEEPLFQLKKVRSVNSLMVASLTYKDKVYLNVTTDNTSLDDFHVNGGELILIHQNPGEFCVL
The experiment in a line: SPR (ProteOn XPR36), rhesus OX40L at 256 nM, apparent affinity; CNROR = Cannot resolve off-rate.

Test [3] addresses T1, Recombinant Human OX40L (Leader …). In words: HTRF ligand/receptor neutralisation, biotinylated hOX40L, competitor OX40RFc-AF647; mean of three experiments, SEM +/-0.04. As to the method:
as §1

In test [4] the target is T2, Recombinant Rhesus OX40L (Leader …). In words: SPR (ProteOn XPR36), antibody captured, rhesus OX40L at 256 nM, apparent affinity; CNROR = Cannot resolve off-rate. The protocol:
(§2) SPR analysis was carried out using the ProteOn™ XPR36 Array System (BioRad). Anti-mouse IgG (GE Healthcare BR-1008-38) was immobilised on a GLM biosensor surface using amine coupling, the surface was then blocked using 1 M ethanolamine. Test antibodies were captured on this surface and recombinant hOX40L (human and rhesus) were used at a single concentration of 256 nM, binding sensorgrams were double referenced using a buffer injection (i.e. 0 nM) to remove baseline drift and injection artefacts. Apparent affinities for the OX40L-antibody interaction were determined using the 1:1 model inherent to the ProteOn XPR36 analysis software. The assay was run using HBS-EP (Teknova) as running buffer and carried out at 25° C.

For test [5], the target named is T1, Recombinant Human OX40L (Leader …). The experiment in a line: HTRF ligand/receptor neutralisation, biotinylated hOX40L, competitor OX40RFc-AF647; mean of three experiments, SEM +/-0.17. The protocol: as §1
(Time-resolved FRET reads energy transfer from a long-lived donor to a nearby acceptor.)

For test [6] the target is unchanged. In words: SPR (ProteOn XPR36), antibody captured on anti-mouse IgG, hOX40L at a single concentration of 256 nM, 1:1 model, apparent affinity, 25 C. The protocol: as §2

T1 sequence (chain, as listed by the source limits assumed): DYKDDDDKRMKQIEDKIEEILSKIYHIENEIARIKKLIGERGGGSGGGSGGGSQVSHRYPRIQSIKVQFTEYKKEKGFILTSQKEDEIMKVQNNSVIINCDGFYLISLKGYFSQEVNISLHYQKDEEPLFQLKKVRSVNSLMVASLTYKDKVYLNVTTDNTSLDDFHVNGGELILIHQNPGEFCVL

B1: 2D10 (human) (antibody, human IgG4 S228P, kappa, V domains shown)
VH: EVQLVESGGGLVQPGGSLRLSCAASGFTFSNYAMNWVRQAPGKGLEWVSTISGSGGATRYADSVKGRFTISRDNSRNTVYLQMNSLRVEDTAVFYCTKDRLIMATVRGPYYYGMDVWGQGTTVTVSS
VL: DIQMTQSPSSLSASVGDRVTITCRASQSISSYLNWYQQKPGKAPNLLIYAASSLQSGVPSRFSGSGSETDFTLTISSLQPEDFATYYCQQSHSVSFTFGPGTKVDIKR
notes: also called 02D10; 02D10 IgG4-PE
As usually defined, the IC50 is the point on the concentration scale where inhibition reaches its midpoint. For B1, the “IC50 (read off the curve)” value in test [1] is approximately 0.8 nM. In test [2], the binding result was “binds”. The IC50 in test [3] is 0.75 nM.

B2: 2D10 (hybridoma) (antibody, V domains shown)
VH: EVQLVESGGGLVQPGGSLRLSCAASGFTFSNYAMNWVRQAPGKGLEWVSTISGSGGATRYADSVKGRFTISRDNSRNTVYLQMNSLRVEDTAVFYCTKDRLIMATVRGPYYYGMDVWGQGTTVTVSS
VL: DIQMTQSPSSLSASVGDRVTITCRASQSISSYLNWYQQKPGKAPNLLIYAASSLQSGVPSRFSGSGSETDFTLTISSLQPEDFATYYCQQSHSVSFTFGPGTKVDIK
notes: Kappa light chain; also called 02D10
Turning to B2, the binding result in test [4] is recorded as “binds”.

B3: 10A07 (human) (antibody, human IgG4 S228P, kappa, V domains shown)
VH: EVQLVESGGVLVQPGGSLRLSCAASGFTFSSYIMTWVRQAPGKGLEWVSGISGSGGGTYYADSMKGRFTISRDNSKNTLYLQMNSLRVEDTAVYYCAKDRLGPITLVRGGYYYGMDVWGQGTTVTVSS
VL: DIQMTQSPSSLSASVGDRVTITCRASQSISDYLNWYQQKPGKAPKFLIYAASSLQSGVPSRFSGSGSGTDFTLTVSSLQPEDFATYYCQQSYSTPRTFGQGTRVEIKR
notes: also called 10A7; 10A07 IgG4PE
For B3, in test [1], the “IC50 (read off the curve)” value is approximately 1 nM. In addition, the IC50 in test [5] came to 1.2 nM. Also, the binding result in test [2] is recorded as “binds”.

B4: 10A07 (hybridoma) (antibody, V domains shown)
VH: EVQLVESGGVLVQPGGSLRLSCAASGFTFSSYIMTWVRQAPGKGLEWVSGISGSGGGTYYADSMKGRFTISRDNSKNTLYLQMNSLRVEDTAVYYCAKDRLGPITLVRGGYYYGMDVWGQGTTVTVSS
VL: DIQMTQSPSSLSASVGDRVTITCRASQSISDYLNWYQQKPGKAPKFLIYAASSLQSGVPSRFSGSGSGTDFTLTVSSLQPEDFATYYCQQSYSTPRTFGQGTRVEIK
notes: Kappa light chain; also called 10A7; mAb 10A7
B4: the binding result in test [4] is on record as “binds”.

B5: 9H04 (hybridoma) (antibody, V domains shown)
VH: QVQLVESGGGLVKPGGSLRLSCAASRFTLSDYYMTWIRQAPGKGLEWVSYISSSGNTIYYADSVKGRFTISRDNAKNSLYLQMNSLRAEDTAVYYCARDLSGSYWDYYYGMDVWGQGTTVTVSS
VL: AIQLTQSPSSLSTSVGDRVTIACRASQGINNALAWYQQKPGKAPKLLIYDASSLESGVPSRFSGSGSGTDFTLTISSLQPEDFATYYCQQFNSYPRTFGQGTKVEIK
notes: also called 09H04
Turning to B5, the Kd in test [6] was determined as 5.3 nM.

B6: 19H01 (hybridoma) (antibody, V domains shown)
VH: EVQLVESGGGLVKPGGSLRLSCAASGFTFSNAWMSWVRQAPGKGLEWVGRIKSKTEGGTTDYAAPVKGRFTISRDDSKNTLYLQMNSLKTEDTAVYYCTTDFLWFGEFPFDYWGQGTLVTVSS
VL: DIQMTQSPSSLSASVGDRVTITCRASQGISNYLAWYQQKPGKIPKLLIYAASTLQSGVPSRFSGSGSGTDFTLTISSLQPEDVATYYCQKYNSAPRTFGQGTKVEIK
On to B6, for which the Kd in test [6] is 2.2 nM.
